B1: Conjugate 4 (2188-D04-Y180/F404/K42/E161-LP1) (antibody, human IgG1, kappa)
heavy: MEVQLVESGGGLVQPGGSLRLSCAASGFNISDYDIHWVRQAPGKGLEWVGGIDPADGSTDYADSVKGRFTISADTSKNTAYLQMNSLRAEDTAVYYCARDYGVYDYWGQGTLVTVSSASTKGPSVFPLAPSSKSTSGGTAALGCLVKDYFPEPVTVSWNSGALTSGVHTFPAVLQSSGLSLSSVVTVPSSSLGTQTYICNVNHKPSNTKVDKKVEPKSCDKTHTCPPCPAPELLGGPSVFLFPPKPKDTLMISRTPEVTCVVVDVSHEDPEVKFNWYVDGVEVHNAKTKPREEQYNSTYRVVSVLTVLHQDWLNGKEYKCKVSNKALPAPIEKTISKAKGQPREPQVYTLPPSREEMTKNQVSLTCLVKGFYPSDIAVEWESNGQPENNYKTTPPVLDSDGSFLYSKLTVDKSRWQQGNVFSCSVMHEALHNHYTQKSLSLSPGK
light: MDIQMTQSPSSLSASVGDRVTITCRASQDVNTAVAWYQQKPGAPKLLIYSASFLYSGVPSRFSGSRSGTDFTLTISSLQPEDFATYYCQQHYTTPPTFGQGTKVEIKRTVAAPSVFIFPPSDEQLKSGTASVVCLLNNFYPREAKVQWKVDNALQSGNSQSVTEQDSKDSTYSLSSTLTLSKADYEKHKVYACEVTHQGLSSPVTKSFNRGEC
modifications: pAMF in place of K42 and E161, printed '*', conjugated to LP1; pAMF in place of Y180 and F404 (EU), printed '*', conjugated to LP1
B2: Conjugate 7 (2188-D04-Y180/F404/K42/E161-LP10) (antibody, human IgG1, kappa)
heavy: B1 heavy
light: B1 light
modifications: pAMF in place of K42 and E161, printed '*', conjugated to LP10; pAMF in place of Y180 and F404 (EU), printed '*', conjugated to LP10
B3: Conjugate 8: D04-Y180/F404/K42/E161-LP2 (antibody, human IgG1, kappa)
heavy: B1 heavy
light: B1 light
modifications: pAMF at K42 and E161 (printed * in the sequence), linked to LP2; pAMF at Y180 and F404 (printed * in the sequence), linked to LP2
B4: Conjugate 14: D04-Y180/F404/K42/E161-LP12 (antibody, human IgG1, kappa)
heavy: B1 heavy
light: B1 light
modifications: pAMF at K42 and E161 (printed * in the sequence), linked to LP12; pAMF at Y180 and F404 (printed * in the sequence), linked to LP12
B5: Conjugate 11: D04-Y180/F404/K42/E161-LP7 (antibody, human IgG1, kappa)
heavy: B1 heavy
light: B1 light
modifications: pAMF at K42 and E161 (printed * in the sequence), linked to LP7; pAMF at Y180 and F404 (printed * in the sequence), linked to LP7
B6: Conjugate 12: D04-Y180/F404/K42/E161-LP5 (antibody, human IgG1, kappa)
heavy: B1 heavy
light: B1 light
modifications: pAMF at K42 and E161 (printed * in the sequence), linked to LP5; pAMF at Y180 and F404 (printed * in the sequence), linked to LP5
B7: Conjugate 13: D04-Y180/F404/K42/E161-LP6 (antibody, human IgG1, kappa)
heavy: B1 heavy
light: B1 light
modifications: pAMF at K42 and E161 (printed * in the sequence), linked to LP6; pAMF at Y180 and F404 (printed * in the sequence), linked to LP6
B8: Conjugate 16: D04-Y180/F404/K42/E161-LP34 (antibody, human IgG1, kappa)
heavy: B1 heavy
light: B1 light
modifications: pAMF at K42 and E161 (printed * in the sequence), linked to LP34; pAMF at Y180 and F404 (printed * in the sequence), linked to LP34
B9: Conjugate 15: D04-Y180/F404/K42/E161-LP13 (antibody, human IgG1, kappa)
heavy: B1 heavy
light: B1 light
modifications: pAMF at K42 and E161 (printed * in the sequence), linked to LP13; pAMF at Y180 and F404 (printed * in the sequence), linked to LP13
B10: Conjugate 4: D04-Y180/F404/K42/E161-LP1 (antibody, human IgG1, kappa)
heavy: B1 heavy
light: B1 light
modifications: pAMF at K42 and E161 (printed * in the sequence), linked to LP1; pAMF at Y180 and F404 (printed * in the sequence), linked to LP1
B11: Conjugate 10: D04-Y180/F404/K42/E161-LP4 (antibody, human IgG1, kappa)
heavy: B1 heavy
light: B1 light
modifications: pAMF at K42 and E161 (printed * in the sequence), linked to LP4; pAMF at Y180 and F404 (printed * in the sequence), linked to LP4
B12: Conjugate 9: D04-Y180/F404/K42/E161-LP3 (antibody, human IgG1, kappa)
heavy: B1 heavy
light: B1 light
modifications: pAMF at K42 and E161 (printed * in the sequence), linked to LP3; pAMF at Y180 and F404 (printed * in the sequence), linked to LP3
B13: Conjugate 40: D04-Y180F404/K42/E161-LP21 (antibody, human IgG1, kappa)
heavy: B1 heavy
light: B1 light
modifications: pAMF at K42 and E161 (printed * in the sequence), linked to LP21; pAMF at Y180 and F404 (printed * in the sequence), linked to LP21
B14: Conjugate 39: D04-Y180F404/K42/E161-LP22 (antibody, human IgG1, kappa)
heavy: B1 heavy
light: B1 light
modifications: pAMF at K42 and E161 (printed * in the sequence), linked to LP22; pAMF at Y180 and F404 (printed * in the sequence), linked to LP22

Biological target: human ROR1 (hROR1) (human, UniProt Q01973 30-937)
Assay: cell-based or functional assay

First: B1
Second: B2
The “NTERA-2 cell killing EC50” value of the first is 2.2-fold lower: 0.022 nM for the first, 0.048 nM for the second.

Going from B1 to B2, the “NTERA-2 cell killing Span” value rises from 63% to 94%.

Biological target: T1, ROR1 antigen expressed on ROR1 positive Ntera-2 cells (UniProt Q01973 30-937)
Assay: cell-based or functional assay

Compared with B3, B4 is lower in “NTERA-2 cell killing EC50” value: over 10 nM for the first, 0.036 nM for the second.

First: B5
Second: B7
The “NTERA-2 cell killing EC50” value of the first is higher: over 10 nM for the first, 0.028 nM for the second.

Going from B8 to B9, the “NTERA-2 cell killing EC50” value falls from over 10 nM to 0.072 nM.

First: B10
Second: B11
The “NTERA-2 cell killing EC50” value of the first is 5.8-fold higher: 0.023 nM for the first, 0.004 nM for the second.

In the case of B12, the “NTERA-2 cell killing EC50” value is reported as 0.027 nM.

Going from B3 to B4, the “NTERA-2 cell killing Span (%)” value rises from under 10% to 56%.

First: B5
Second: B6
The “NTERA-2 cell killing Span (%)” value of the first is lower: under 10% for the first, 94% for the second.

Going from B7 to B8, the “NTERA-2 cell killing Span (%)” value falls from 38% to under 10%.

First: B10
Second: B11
The “NTERA-2 cell killing Span (%)” value of the first is lower: 58% for the first, 77% for the second.

For B12, the “NTERA-2 cell killing Span (%)” value was 94%.

Biological target: T1, ROR1 antigen expressed on ROR1 positive …
Assay: cell-based or functional assay
Remark: another data set of the same source

First: B10
Second: B11
The “NTERA-2 cell killing EC50” value of the first is 3.5-fold higher: 0.067 nM for the first, 0.019 nM for the second.

First: B10
Second: B11
The “NTERA-2 cell killing Span (%)” value of the first is lower: 60% for the first, 86% for the second.

Biological target: T1, ROR1 antigen expressed on ROR1 positive …
Assay: cell-based or functional assay
Remark: another data set of the same source

Going from B13 to B14, the “NTERA-2 cell killing EC50” value rises from 0.076 nM to 0.215 nM (2.8-fold).

Compared with B10, B11 is 3.8-fold lower in “NTERA-2 cell killing EC50” value: 0.05 nM for the first, 0.013 nM for the second.

First: B13
Second: B14
The “NTERA-2 cell killing Span (%)” value of the first is higher: 68% for the first, 54% for the second.

Compared with B10, B11 is higher in “NTERA-2 cell killing Span (%)” value: 65% for the first, 89% for the second.

Biological target: T1, ROR1 antigen expressed on ROR1 positive …
Assay: cell-based or functional assay
Remark: another data set of the same source

Going from B11 to B12, the “NTERA-2 cell killing EC50” value rises from 0.003 nM to 0.119 nM (40-fold).

Compared with B11, B12 is lower in “NTERA-2 cell killing Span (%)” value: 96% for the first, 63% for the second.
